Molecular target: T1, wild-type TrpB, beta subunit of tryptophan synthase from Salmonella typhimurium (Salmonella typhimurium, UniProt P0A2K1 1-397)
T1 construct: TrpB (tryptophan synthase beta chain), Salmonella typhimurium; it carries pyridoxal phosphate as internal aldimine on bK87
T1 sequence: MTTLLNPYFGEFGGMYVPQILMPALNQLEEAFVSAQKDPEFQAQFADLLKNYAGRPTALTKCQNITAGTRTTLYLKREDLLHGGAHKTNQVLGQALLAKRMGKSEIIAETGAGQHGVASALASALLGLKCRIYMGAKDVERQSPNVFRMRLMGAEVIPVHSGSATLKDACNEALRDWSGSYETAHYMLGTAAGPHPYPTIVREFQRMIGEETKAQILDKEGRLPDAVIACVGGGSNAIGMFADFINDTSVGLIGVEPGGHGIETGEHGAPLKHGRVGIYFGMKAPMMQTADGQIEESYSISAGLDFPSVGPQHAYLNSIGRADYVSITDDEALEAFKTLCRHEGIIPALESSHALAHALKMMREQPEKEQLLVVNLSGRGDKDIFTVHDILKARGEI
Test: SEC
Details: both partners purified

B1: wild-type TrpA, alpha subunit of tryptophan synthase from Salmonella typhimurium (enzyme, UniProt P00929 1-268, looked up)
chain: MERYENLFAQLNDRREGAFVPFVTLGDPGIEQSLKIIDTLIDAGADALELGVPFSDPLADGPTIQNANLRAFAAGVTPAQCFEMLALIREKHPTIPIGLLMYANLVFNNGIDAFYARCEQVGVDSVLVADVPVEESAPFRQAALRHNIAPIFICPPNADDDLLRQVASYGRGYTYLLSRSGVTGAENRGALPLHHLIEKLKEYHAAPALQGFGISSPEQVSAAVRAGAAGAISGSAIVKIIEKNLASPKQMLAELRSFVSAMKAASRA
notes: TrpA (tryptophan synthase alpha chain), Salmonella typhimurium
binding result: binds
